B1: KCNA3 (parent)
chain: GERVVINISGLRFETQLKTLCQFP

Variants of: B1
Experiment: protein stability index of a GFP-peptide fusion (GPS, HEK-293T) (PSI 1-6); higher = more stable
Details: c terminus: a fixed tail appended
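Note: lentivirally expressed fusions sorted by FACS into six bins by GFP to DsRed ratio, PSI derived from sequencing read proportions per bin multiplied by bin number.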

Protein stability index: each site, then its substitutions
T15: L 3.24; Q 2.31; N 3.66; G 4.2; R 2.69; Y 2.63; E 2.62
N7: Q 2.66; S 4.73; P 1.53; H 4.19; G 2.14; Y 1.8
P24: L 2.2; F 3.52; V 1.04; C 2.4; E 4.68; I 2; Y 2.26; N 3.07; G 2.75; W 1.69; K 1.44; A 2.47
I8: T 2.17; R 1.83; K 1.97; M 1.65; S 1.86; C 2.62; G 2.23; E 3.02; N 2.53; Y 2; D 2.82; H 2.55; F 2.85; V 1.28; A 1.67; Q 2.12; P 3.11; W 1.76
L11: W 2.49; E 2.01; P 1.54; T 1.58; F 1.61; S 1.75; D 1.81; I 2.68; H 1.38; N 2.94; G 2.45; V 3.59; A 1.34; Q 1.45
F23: T 1.36; L 1.95; E 2.2; H 3.14; K 1.59; Q 1.94; S 2.88; I 2.48; C 3.65; N 1.52; R 1.92; D 2.25; A 2.41
F13: M 2.64; E 2.14; C 2.83; T 1.56; V 2.58; D 1.48; S 1.97; Q 1.87; G 2.14; K 1.67; N 1.26; L 1.06; I 2.7; A 1.45; P 2.27
L17: E 1.87; P 2.58; I 2.92; R 1.87; V 2.92; K 1.42; N 2.04; H 3.03; D 2.06; A 2.88; T 2.85
L20: G 1.95; I 1.56; Q 1.2; C 1.39; A 2.24; S 2.34; R 2.84; M 2.22; N 2.33; K 3.74; D 1.22
R12: S 1.48; N 2.85; C 2.46; P 1.45; Q 2.21; W 2.37; Y 2.61; K 2.5; D 1.84; L 4.18
Q22: M 3.99; D 3.65; L 1.84; N 2.1; C 4.8; A 1.9; H 2.26; G 2.94; E 2.39; T 2.59
S9: P 1; F 2.47; L 2.27; D 1.51; K 2.4; A 1.29; G 1.04; V 1.83; E 3.59; Q 3.24
Q16: H 2.53; N 1.04; S 2.69; G 2.49; T 1.39; F 2.47; D 1.87; Y 2.02; M 4.05; P 2
G10: N 2.35; L 3.08; I 1.81; R 1.26; T 2.62; E 2.8; F 2.81; P 4.02; V 1; D 1.47
C21: F 2.95; D 2.14; G 1; M 1.12; N 1.37; R 3.08; I 3.26; H 1.91; P 3.67; T 2.68

— the supplement of paper PMC10567573
